Laboratory results: US20200262910A1 (SINGAPORE HEALTH SERVICES PTE, published 2020)
Blank lines part the entries; values can stand above or below the binder they belong to.

What was measured:
[1] = molecular target: T1, Mouse IL11RA (50075-M08H, SinoBiological); mouse interleukin 11 receptor alpha chain 1 (mouse, UniProt Q64385 24-367); assay: SPR (BIAcore T200), IL11 immobilized on CM5, receptor as analyte, 1:1 Langmuir fit; rhIL11 (human ligand) on mouse IL11RA1
T1 construct: also called mIL11RA1; IL11RA1
T1 sequence (looked up): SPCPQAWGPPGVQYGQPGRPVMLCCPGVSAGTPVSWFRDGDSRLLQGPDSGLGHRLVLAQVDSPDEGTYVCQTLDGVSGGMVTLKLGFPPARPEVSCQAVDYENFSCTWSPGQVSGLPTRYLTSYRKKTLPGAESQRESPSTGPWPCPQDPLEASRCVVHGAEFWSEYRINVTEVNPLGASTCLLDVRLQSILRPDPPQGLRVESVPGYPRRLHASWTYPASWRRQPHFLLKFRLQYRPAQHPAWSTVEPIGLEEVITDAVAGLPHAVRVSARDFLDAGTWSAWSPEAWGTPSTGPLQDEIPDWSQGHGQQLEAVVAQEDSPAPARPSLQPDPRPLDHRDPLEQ
Protocol: (§1) SPR measurements were performed on a BIAcore T200 (GE Healthcare) at 25° C. Buffers were degassed and filter-sterilized through 0.2 μm filters prior to use. RhIL11 or rmIl11 was immobilized onto a carboxymethylated dextran (CM5) sensor chip using standard amine coupling chemistry. For kinetic analysis, a concentration series (3.125 nM to 100 nM) of human IL11RA or mouse Il11ra was injected over the rhIL11, rmIl11 and reference surfaces at a flow rate of 40 μl min⁻¹. All the analytes were dissolved in HBS-EP+ (BR100669, GE Healthcare) containing 1 mg ml⁻¹ BSA. The association and dissociation were measured for 150 s and 200 s respectively. After each analyte injection, the surface was regenerated by a 30 s injection of Glycine pH2.5, followed by a 5 min stabilisation period. All sensorgrams were aligned and double-referenced. Affinity and kinetic constants were determined by fitting the corrected sensorgrams with the 1:1 Langmuir model using BIAevaluation v3.0 software (GE Healthcare). The equilibrium binding constant KD was determined by the ratio of the binding rate constants kd/ka.

[2] = molecular target: T1, Mouse IL11RA (50075-M08H, …); assay: SPR (BIAcore T200): ligand hIL11 immobilized, analyte mIL11RA, 1:1 Langmuir fit
Protocol: as §1

[3] = molecular target: T2, Human IL11RA (10252-H08H, SinoBiological) (human, UniProt Q14626 23-365); assay: SPR (BIAcore T200): ligand hIL11 immobilized, analyte hIL11RA, 1:1 Langmuir fit
T2 construct: also called hIL11RA
T2 sequence: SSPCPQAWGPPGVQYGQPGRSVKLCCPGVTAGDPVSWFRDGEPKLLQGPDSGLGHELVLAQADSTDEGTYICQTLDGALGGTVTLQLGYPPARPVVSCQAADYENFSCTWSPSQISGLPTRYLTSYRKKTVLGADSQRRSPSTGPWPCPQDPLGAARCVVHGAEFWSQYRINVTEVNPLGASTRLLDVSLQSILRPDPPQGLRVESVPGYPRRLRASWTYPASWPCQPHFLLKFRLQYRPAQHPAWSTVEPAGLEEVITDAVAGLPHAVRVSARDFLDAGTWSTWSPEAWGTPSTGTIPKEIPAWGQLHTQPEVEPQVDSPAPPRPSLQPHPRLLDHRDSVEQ
Protocol: as §1

[4] = molecular target: T2, Human IL11RA (10252-H08H, …); assay: SPR (BIAcore T200, 25 C): rhIL11 immobilized on a CM5 chip, human IL11RA injected as analyte (3.125 to 100 nM), 1:1 Langmuir fit
Protocol: as §1

[5] = molecular target: T1, Mouse IL11RA (50075-M08H, …); assay: SPR (BIAcore T200, 25 C): rhIL11 immobilized on a CM5 chip, mouse IL11RA injected as analyte (3.125 to 100 nM), 1:1 Langmuir fit
Protocol: as §1

[6] = molecular target: T1, Mouse IL11RA (50075-M08H, …); assay: SPR (BIAcore T200, 25 C): rmIL11 immobilized on a CM5 chip, mouse IL11RA injected as analyte (3.125 to 100 nM), 1:1 Langmuir fit
Protocol: as §1

[7] = molecular target: T1, Mouse IL11RA (50075-M08H, …); assay: SPR (BIAcore T200): ligand mIL11 immobilized, analyte mIL11RA, 1:1 Langmuir fit
Protocol: as §1

[8] = molecular target: T1, Mouse IL11RA (50075-M08H, …); assay: SPR (BIAcore T200), IL11 immobilized on CM5, receptor as analyte, 1:1 Langmuir fit; rmIL11 (mouse ligand) on mouse IL11RA1
Protocol: as §1

Kd [1]: 72 nM
Kd [2]: 72.3 nM
koff [2]: 0.012 s⁻¹
kon [2]: 166000 M⁻¹ s⁻¹
Kd [3]: 45.3 nM
koff [3]: 0.0204 s⁻¹
kon [3]: 451000 M⁻¹ s⁻¹
Kd [4]: 45.3 nM
Kd [5]: 72.3 nM
B1: Recombinant human IL11 (rhIL11, UniProtKB:P20809, Genscript) (ligand)
chain: PGPPPGPPRVSPDPRAELDSTVLLTRSLLADTRQLAAQLRDKFPADGDHNLDSLPTLAMSAGALGALQLPGVLTRLRADLLSYLRHVQWLRRAGGSSLKTLEPELGTLQARLDRLLRRLQLLMSRLALPQPPPDPPAPPLAPPSSAWGGIRAAHAILGGLHLTLDWAVRGLLLLKTRL
notes: It was amine-coupled to a CM5 chip in SPR

Kd [6]: 94.1 nM
Kd [7]: 94.1 nM
koff [7]: 0.0115 s⁻¹
kon [7]: 122000 M⁻¹ s⁻¹
Kd [8]: 94 nM
B2: Recombinant mouse IL11 (rmIL11, UniProtKB: P47873, Genscript) (ligand, UniProt P47873 22-199, looked up)
chain: PGPPAGSPRVSSDPRADLDSAVLLTRSLLADTRQLAAQMRDKFPADGDHSLDSLPTLAMSAGTLGSLQLPGVLTRLRVDLMSYLRHVQWLRRAGGPSLKTLEPELGALQARLERLLRRLQLLMSRLALPQAAPDQPVIPLGPPASAWGSIRAAHAILGGLHLTLDWAVRGLLLLKTRL
notes: Amine-coupled to a CM5 chip in SPR; also called biotinylated mouse Il11
